# From patent US20200223915A1 (OSAKA UNIVERSITY, published 2020)
# T1: wild-type human Claudin 1 protein (human, UniProt O95832 1-211)
# T1 construct: Expressed on cells by retrovirus; also called hCLDN1
# T1 sequence: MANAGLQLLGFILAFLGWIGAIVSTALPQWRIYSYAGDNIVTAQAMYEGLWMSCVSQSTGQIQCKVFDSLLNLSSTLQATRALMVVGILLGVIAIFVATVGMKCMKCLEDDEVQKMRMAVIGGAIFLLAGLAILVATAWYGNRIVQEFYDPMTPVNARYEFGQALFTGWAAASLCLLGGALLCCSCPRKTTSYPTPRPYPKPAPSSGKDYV
# T2: wild-type human Claudin 6 protein (human, UniProt P56747 1-220)
# T2 construct: Expressed on cells by retrovirus; Wording leaves open whether the entry is the protein or the DNA; also called hCLDN6
# T2 sequence: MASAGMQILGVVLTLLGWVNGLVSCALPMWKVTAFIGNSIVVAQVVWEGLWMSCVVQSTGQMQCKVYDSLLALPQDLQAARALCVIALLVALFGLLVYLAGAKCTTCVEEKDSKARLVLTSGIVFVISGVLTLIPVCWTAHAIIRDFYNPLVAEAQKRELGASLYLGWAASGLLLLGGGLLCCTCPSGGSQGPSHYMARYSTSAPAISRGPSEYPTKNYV
# T3: wild-type mouse Claudin 4 protein (mouse, UniProt O35054 1-210)
# T3 construct: Expressed on cells by retrovirus; Wording leaves open whether the entry is the protein or the DNA; also called mCLDN4
# T3 sequence: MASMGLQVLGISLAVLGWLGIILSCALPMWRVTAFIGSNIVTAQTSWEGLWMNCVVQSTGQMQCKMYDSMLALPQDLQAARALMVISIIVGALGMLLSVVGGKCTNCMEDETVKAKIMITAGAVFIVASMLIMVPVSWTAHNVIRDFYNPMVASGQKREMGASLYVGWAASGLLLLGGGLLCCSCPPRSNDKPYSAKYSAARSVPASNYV
# T4: wild-type rat Claudin 5 protein (rat, UniProt Q9JKD6 1-218)
# T4 sequence: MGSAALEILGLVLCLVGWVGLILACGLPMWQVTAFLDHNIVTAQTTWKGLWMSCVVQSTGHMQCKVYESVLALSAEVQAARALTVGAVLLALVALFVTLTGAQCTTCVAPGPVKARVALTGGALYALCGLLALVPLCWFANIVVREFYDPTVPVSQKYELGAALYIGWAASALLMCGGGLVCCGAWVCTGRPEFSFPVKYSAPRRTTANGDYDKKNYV
# T5: wild-type human Claudin 5 protein (human, UniProt O00501 1-218)
# T5 construct: also called hCLDN5; CLDN 5
# T5 sequence: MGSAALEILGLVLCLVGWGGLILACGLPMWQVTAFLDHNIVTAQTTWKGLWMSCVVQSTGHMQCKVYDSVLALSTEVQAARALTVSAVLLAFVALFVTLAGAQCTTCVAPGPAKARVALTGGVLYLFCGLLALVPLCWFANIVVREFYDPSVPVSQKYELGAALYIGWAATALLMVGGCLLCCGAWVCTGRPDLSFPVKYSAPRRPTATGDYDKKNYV
# B1: antibody 2B12 (antibody, IgG2a, V domains shown)
# VH: QVQLQQSGAELARPGASVKLSCKASGYTFTRFGMSWVKQRTGQGLEWIGEIYPGSGDTYYSENFKGKATLTADKSSGTAYMELRSLTSEDSAVYFCARWGIYYGNPYAMDYWGQGTSVTVSS
# VL: DIVMTQAAPSVPVTPGESVSISCRSSKSLLHSNGNTYLYWFLQRPGQSPQLLIYRMSNLASGVPDRFSGSGSGTAFTLRISRVEAEDVGVYYCLQHLEYPFTFGSGTKLEIKR
# notes: also called antibody A
# B2: antibody 2B1 (antibody, IgG2a, V domains shown)
# VH: QVQLQQPGAELVKPGASVKLSCKASGYTFTTFWIHWVKQRPGRGLEWIGRIAPYSGGTTYNEKFKSKATLTVDRPSTTAYMQLISLTSEDSAVYYCARWDFTYGSNLDYWGQGTTLTVSS
# VL: DIVMTQSQKFMSTSVGDRVSIPCKASQNVRTAVAWYQQKPGQSPKALIYLASNRHTGVPDRFTGSGSGTDFTLTISNVQSEDLADYFCLGHWDYPYTFGGGTKLEIKR
# notes: also called antibody B
# What was measured:
# [1] = target: T1, wild-type human Claudin 1 protein; experiment: FACS on Claudin-expressing cells
# Method: (§1) The cells were washed three times with 0.2% BSA-TBS, and then mixed with 100 μL of a secondary antibody solution (FITC conjugated goat anti-mouse IgG+IgM in 1% BSA-PBS (1:400)), followed by a reaction at 4° C. for 1 hour. The cells were washed with 0.2% BSA-TBS, and FACS analysis (FACS caliber, BD Bioscience) was performed.
# [2] = target: T2, wild-type human Claudin 6 protein; experiment: FACS on Claudin-expressing cells
# Method: as §1
# [3] = target: T3, wild-type mouse Claudin 4 protein; experiment: FACS on Claudin-expressing cells
# Method: as §1
# [4] = target: T4, wild-type rat Claudin 5 protein; experiment: FACS on Claudin 5-expressing cells (species comparison)
# Method: as §1
# FIG. 5 illustrates histograms with the horizontal axis representing the fluorescence signal, and the vertical axis representing the cell count. FIG. 6 illustrates a comparison of the amino acid. sequences of Claudin 5 protein of different species.
# [5] = target: T5, wild-type human Claudin 5 protein; experiment: FACS on human Claudin 5-expressing HT-1080 cells; 50% saturation of the MFI binding curve
# Method: as §1
Binder,binding result [1],binding result [2],binding result [3],binding result [4],Kd [5]
B1,no binding (tested: 10 µg/mL),no binding (tested: 10 µg/mL),no binding (tested: 10 µg/mL),no binding (tested: 10 µg/mL),7.3 nM
B2,no binding (tested: 10 µg/mL),no binding (tested: 10 µg/mL),no binding (tested: 10 µg/mL),no binding (tested: 10 µg/mL),6.9 nM
